Experimental data published in paper PMC6423188, “HYNIC and DOMA conjugated radiolabeled bombesin analogs as receptor-targeted probes for scintigraphic detection of breast tumor” (EJNMMI Research, 2019).
Where two headings read alike, the source gives them in different places. Where a SMILES comes first, the peptide text is derived from it.

What was measured:
[1] = tested on: MDA-MB-231 tumor-bearing mice; assay: In vivo biodistribution; set-up: species or system mouse; details: BALB/c, mouse, in vivo, iv
Summary of the method: (§1)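 BALB/c mice immunosuppressed with cyclosporine-A (30 mg/kg/day i.p.) bore subcutaneous MDA-MB-231 tumours (~0.5 cm); ^99mTc-bombesin analogs given i.v. via tail vein, three mice per group. Organs excised at 5, 30, 60 and 120 min and gamma-counted as decay-corrected %IA/g; blocking used 0.03 nmol tracer (2 MBq) plus 25 nmol unlabelled BN peptide, read at 60 and 120 min.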

In vivo biodistribution = assay: In vivo biodistribution; set-up: species or system mouse; details: BALB/c, mouse, in vivo, total radioactivity
Summary of the method: as §1

Blood clearance studies = format: in vivo; details: mouse, i.v. tail vein
Description: ^99mTc-labeled HYNIC/DOMA conjugated peptide analogs (1 mCi, 0.2 mL) were administered to well-hydrated mouse (n = 3) through tail vein and blood samples (20 μL each) were collected at preset time intervals (2, 5, 15, 30, 60, 90, and 120 min) in the tube. Each sample was weighed accurately, and associated radioactivity was counted in a gamma counter. The percentage injected activities per gram (%IA/g) in each blood sample at each time were determined, and the data were plotted as a function of the time interval to obtain the blood clearance curve of the radiopharmaceuticals.

CCCC[C@H](NC(=O)[C@@H](Cc1ccc(O)cc1)NC(=O)[C@H](Cc1c[nH]cn1)NC(=O)[C@H]1CCCN1C(=O)[C@@H](NC(=O)[C@H](C)NC(=O)[C@H](Cc1c[nH]c2ccccc12)NC(=O)[C@H](CCC(N)=O)NC(=O)CCCNC(=O)CN1CCNCCNCCNCC1)C(C)C)C(N)=O [99mTc-BN4, ^99mTc-DOMA-GABA-[Pro^11Tyr^13Nle^14]-BN(7-14)NH2, metal not drawn] (HELM PEPTIDE1{[O=C(CN1CCNCCNCCNCC1)[*:2]].[O=C(CCCN[*:1])[*:2]].Q.W.A.V.[dP].H.[dY].[Nle].[am]}$$$$V2.0)
Liver uptake ([1]; 0.5 h): 0.52 ± 0.13 %IA/g
Stomach uptake ([1]; 0.5 h): 0.91 ± 0.04 %IA/g
Pancreas uptake ([1]; 1 h): 1.98 ± 0.02 %IA/g
Stomach uptake ([1]; 2 h): 0.20 ± 0.01 %IA/g
tissue uptake at 5 min (In vivo biodistribution; iv, Blood uptake): 0.42 ± 0.01 %ID/g
tissue uptake at 0.5 h (In vivo biodistribution; iv, Blood uptake): 0.81 ± 0.01 %ID/g
tissue uptake at 1 h (In vivo biodistribution; iv, Blood uptake): 0.42 ± 0.03 %ID/g
tissue uptake at 2 h (In vivo biodistribution; iv, Blood uptake): 0.17 %ID/g
tissue uptake at 5 min (In vivo biodistribution; iv, Heart uptake): 0.73 ± 0.03 %ID/g
tissue uptake at 0.5 h (In vivo biodistribution; iv, Heart uptake): 0.67 ± 0.02 %ID/g
tissue uptake at 1 h (In vivo biodistribution; iv, Heart uptake): 0.25 ± 0.02 %ID/g
tissue uptake at 2 h (In vivo biodistribution; iv, Heart uptake): 0.09 ± 0.04 %ID/g
tissue uptake at 5 min (In vivo biodistribution; iv, Intestine uptake): 1.01 ± 0.06 %ID/g
tissue uptake at 0.5 h (In vivo biodistribution; iv, Intestine uptake): 1.6 ± 0.05 %ID/g
tissue uptake at 1 h (In vivo biodistribution; iv, Intestine uptake): 2.15 ± 0.21 %ID/g
tissue uptake at 2 h (In vivo biodistribution; iv, Intestine uptake): 0.82 ± 0.05 %ID/g
tissue uptake at 5 min (In vivo biodistribution; iv, Kidney uptake): 2.17 ± 0.11 %ID/g
tissue uptake at 0.5 h (In vivo biodistribution; iv, Kidney uptake): 3.95 ± 0.21 %ID/g
tissue uptake at 1 h (In vivo biodistribution; iv, Kidney uptake): 3.1 ± 0.17 %ID/g
tissue uptake at 2 h (In vivo biodistribution; iv, Kidney uptake): 2.1 ± 0.13 %ID/g
tissue uptake at 5 min (In vivo biodistribution; iv, Liver uptake): 0.4 ± 0.03 %ID/g
tissue uptake at 0.5 h (In vivo biodistribution; iv, Liver uptake): 0.32 ± 0.13 %ID/g
tissue uptake at 1 h (In vivo biodistribution; iv, Liver uptake): 0.28 ± 0.12 %ID/g
tissue uptake at 2 h (In vivo biodistribution; iv, Liver uptake): 0.17 ± 0.03 %ID/g
tissue uptake at 5 min (In vivo biodistribution; iv, Lung uptake): 1.07 ± 0.14 %ID/g
tissue uptake at 0.5 h (In vivo biodistribution; iv, Lung uptake): 0.82 ± 0.03 %ID/g
tissue uptake at 1 h (In vivo biodistribution; iv, Lung uptake): 0.7 ± 0.02 %ID/g
tissue uptake at 2 h (In vivo biodistribution; iv, Lung uptake): 0.25 ± 0.11 %ID/g
tissue uptake at 5 min (In vivo biodistribution; iv, Muscle uptake): 0.26 ± 0.02 %ID/g
tissue uptake at 0.5 h (In vivo biodistribution; iv, Muscle uptake): 0.32 ± 0.04 %ID/g
tissue uptake at 1 h (In vivo biodistribution; iv, Muscle uptake): 0.25 ± 0.02 %ID/g
tissue uptake at 2 h (In vivo biodistribution; iv, Muscle uptake): 0.1 ± 0.01 %ID/g
tissue uptake at 5 min (In vivo biodistribution; iv, Pancreas uptake): 2.88 ± 0.11 %ID/g
tissue uptake at 0.5 h (In vivo biodistribution; iv, Pancreas uptake): 4.49 ± 0.03 %ID/g
tissue uptake at 1 h (In vivo biodistribution; iv, Pancreas uptake): 3.75 ± 0.06 %ID/g
tissue uptake at 2 h (In vivo biodistribution; iv, Pancreas uptake): 1.1 ± 0.04 %ID/g
tissue uptake at 5 min (In vivo biodistribution; iv, Spleen uptake): 0.62 ± 0.04 %ID/g
tissue uptake at 0.5 h (In vivo biodistribution; iv, Spleen uptake): 0.56 ± 0.01 %ID/g
tissue uptake at 1 h (In vivo biodistribution; iv, Spleen uptake): 0.24 ± 0.01 %ID/g
tissue uptake at 2 h (In vivo biodistribution; iv, Spleen uptake): 0.17 ± 0.02 %ID/g
tissue uptake at 5 min (In vivo biodistribution; iv, Stomach uptake): 0.47 ± 0.02 %ID/g
tissue uptake at 0.5 h (In vivo biodistribution; iv, Stomach uptake): 0.51 ± 0.04 %ID/g
tissue uptake at 2 h (In vivo biodistribution; iv, Stomach uptake): 0.12 ± 0.01 %ID/g
tissue uptake at 5 min (In vivo biodistribution; iv, Tumor uptake): 1.3 ± 0.01 %ID/g
tissue uptake at 0.5 h (In vivo biodistribution; iv, Tumor uptake): 3.32 ± 0.01 %ID/g
tissue uptake at 1 h (In vivo biodistribution; iv, Tumor uptake): 2.85 ± 0.02 %ID/g
tissue uptake at 2 h (In vivo biodistribution; iv, Tumor uptake): 1.31 ± 0.03 %ID/g
tissue to tissue ratio at 5 min (In vivo biodistribution; iv, tumor/blood ratio): 3
tissue to tissue ratio at 0.5 h (In vivo biodistribution; iv, tumor/blood ratio): 4.09
tissue to tissue ratio at 1 h (In vivo biodistribution; iv, tumor/blood ratio): 6.78
tissue to tissue ratio at 2 h (In vivo biodistribution; iv, tumor/blood ratio): 7.7
tissue to tissue ratio at 5 min (In vivo biodistribution; iv, tumor/kidney ratio): 0.59
tissue to tissue ratio at 0.5 h (In vivo biodistribution; iv, tumor/kidney ratio): 0.84
tissue to tissue ratio at 1 h (In vivo biodistribution; iv, tumor/kidney ratio): 0.91
tissue to tissue ratio at 2 h (In vivo biodistribution; iv, tumor/kidney ratio): 0.62
tissue to tissue ratio at 5 min (In vivo biodistribution; iv, tumor/muscle ratio): 5
tissue to tissue ratio at 0.5 h (In vivo biodistribution; iv, tumor/muscle ratio): 10.4
tissue to tissue ratio at 1 h (In vivo biodistribution; iv, tumor/muscle ratio): 11.4
tissue to tissue ratio at 2 h (In vivo biodistribution; iv, tumor/muscle ratio): 12.4
tissue uptake at 1 h (In vivo biodistribution; 60 min p.i., blocked with excess non-radiolabeled BN peptide, MDA-MB-231 tumor, mean ± SD, n = 3, read-out: Tumor uptake): 0.66 ± 0.2 %ID/g
tissue uptake at 1 h (In vivo biodistribution; 60 min p.i., blocked with excess non-radiolabeled BN peptide, mean ± SD, n = 3, read-out: Blood uptake): 0.29 ± 0.01 %ID/g
tissue uptake at 1 h (In vivo biodistribution; 60 min p.i., blocked with excess non-radiolabeled BN peptide, mean ± SD, n = 3, read-out: Heart uptake): 0.27 ± 0.11 %ID/g
tissue uptake at 1 h (In vivo biodistribution; 60 min p.i., blocked with excess non-radiolabeled BN peptide, mean ± SD, n = 3, read-out: Intestine uptake): 1.66 ± 0.23 %ID/g
tissue uptake at 1 h (In vivo biodistribution; 60 min p.i., blocked with excess non-radiolabeled BN peptide, mean ± SD, n = 3, read-out: Kidney uptake): 3.18 ± 0.2 %ID/g
tissue uptake at 1 h (In vivo biodistribution; Lung uptake): 0.78 ± 0.02 %ID/g
tissue uptake at 1 h (In vivo biodistribution; Muscle uptake): 0.13 ± 0.1 %ID/g
tissue uptake at 1 h (In vivo biodistribution; Spleen uptake): 0.26 ± 0.03 %ID/g
tissue uptake at 1 h (In vivo biodistribution; Stomach uptake): 0.63 ± 0.1 %ID/g
t1/2 in blood (Blood clearance studies): 30 min
